Molecular target: P domain protein of norovirus VA207 (GII.9), amino acid 222-537 (norovirus VA207 (GII.9))
Test: crystal structure; native P protein (P2(1)2(1)2) and its complexes with Le^y or SLe^x tetrasaccharide (P2(1)2(1)2(1)); hanging drop, PEG 3350, 50 mM magnesium formate

With “P domain protein of norovirus VA207 (GII.9), amino acid 222-537 (domain or fragment)” as the substance, how does the stoichiometry N read?
The stoichiometry N was 2.

Source: PMC3141052
